# Reference: article PMC7774078
# Substrate: NS(=O)(=O)c1cc(C(=O)O)c(NCc2ccco2)cc1Cl
# Assay: cells, lysate or membranes
# Details: ATP, Mg2+
protein,measurement,value
multidrug resistance-associated protein 4 (MRP4) (Homo sapiens) (protein) MLPVYQEVKPNPLQDANLCSRVFFWWLNPLFKIGHKRRLEEDDMYSVLPEDRSQHLGEELQGFWDKEVLRAENDAQKPSLTRAIIKCYWKSYLVLGIFTLIEESAKVIQPIFLGKIINYFENYDPMDSVALNTAYAYATVLTFCTLILAILHHLYFYHVQCAGMRLRVAMCHMIYRKALRLSNMAMGKTTTGQIVNLLSNDVNKFDQVTVFLHFLWAGPLQAIAVTALLWMEIGISCLAGMAVLIILLPLQSCFGKLFSSLRSKTATFTDARIRTMNEVITGIRIIKMYAWEKSFSNLITNLRKKEISKILRSSCLRGMNLASFFSASKIIVFVTFTTYVLLGSVITASRVFVAVTLYGAVRLTVTLFFPSAIERVSEAIVSIRRIQTFLLLDEISQRNRQLPSDGKKMVHVQDFTAFWDKASETPTLQGLSFTVRPGELLAVVGPVGAGKSSLLSAVLGELAPSHGLVSVHGRIAYVSQQPWVFSGTLRSNILFGKKYEKERYEKVIKACALKKDLQLLEDGDLTVIGDRGTTLSGGQKARVNLARAVYQDADIYLLDDPLSAVDAEVSRHLFELCICQILHEKITILVTHQLQYLKAASQILILKDGKMVQKGTYTEFLKSGIDFGSLLKKDNEESEQPPVPGTPTLRNRTFSESSVWSQQSSRPSLKDGALESQDTENVPVTLSEENRSEGKVGFQAYKNYFRAGAHWIVFIFLILLNTAAQVAYVLQDWWLSYWANKQSMLNVTVNGGGNVTEKLDLNWYLGIYSGLTVATVLFGIARSLLVFYVLVNSSQTLHNKMFESILKAPVLFFDRNPIGRILNRFSKDIGHLDDLLPLTFLDFIQTLLQVVGVVSVAVAVIPWIAIPLVPLGIIFIFLRRYFLETSRDVKRLESTTRSPVFSHLSSSLQGLWTIRAYKAEERCQELFDAHQDLHSEAWFLFLTTSRWFAVRLDAICAMFVIIVAFGSLILAKTLDAGQVGLALSYALTLMGMFQWCVRQSAEVENMMISVERVIEYTDLEKEAPWEYQKRPPPAWPHEGVIIFDNVNFMYSPGGPLVLKHLTALIKSQEKVGIVGRTGAGKSSLISALFRLSEPEGKIWIDKILTTEIGLHDLRKKMSIIPQEPVLFTGTMRKNLDPFNEHTDEELWNALQEVQLKETIEDLPGKMDTELAESGSNFSVGQRQLVCLARAILRKNQILIIDEATANVDPRTDELIQKKIREKFAHCTVLTIAHRLNTIIDSDKIMVLDSGRLKEYDEPYVLLQNKESLFYKMVQQLGKAEAAALTETAKQVYFKRNYPHIGHTDHMVTNTSNGQPSTLTIFETAL,Km,27.96 µM
